What all share (conditions): Enterobacter cloacae
Substrate in data set [1]: CC(=O)OCC1=C(C(=O)O)N2C(=O)/C(=N/O)[C@H]2S(=O)(=O)C1
Substrate in data set [2]: CC(=O)OCC1=C(C(=O)O)N2C(=O)/C(=N/O)[C@H]2SC1
Substrate in data set [3]: CC(=O)OCC1=C(C(=O)O)N2C(=O)[C@@H](N(O)C(=O)Cc3ccccc3)[C@H]2SC1
Substrate in data set [4]: CC(=O)OCC1=C(C(=O)O)N2C(=O)[C@@H](N(O)C=O)[C@H]2SC1
Substrate in data set [5]: CC(=O)OCC1=C(C(=O)O)N2C(=O)[C@@H](N)[C@H]2SC1
Substrate in data set [6]: CC(=O)OCC1=C(C(=O)O)N2C(=O)[C@@H](NC(=O)Cc3cccs3)[C@H]2SC1
Substrate in data set [7]: CC(=O)OCC1=C(C(=O)O)N2C(=O)[C@@H](NC=O)[C@H]2SC1
Substrate in data set [8]: CC(=O)OCC1=C(C(=O)O)N2C(=O)[C@@H](NO)[C@H]2SC1
Substrate in data set [9]: CC1=C(C(=O)O)N2C(=O)/C(=N/O)[C@H]2S(=O)(=O)C1

B1: Beta-lactamase (Enterobacter cloacae), P05364 (protein)
chain: MMRKSLCCALLLGISCSALATPVSEKQLAEVVANTITPLMKAQSVPGMAVAVIYQGKPHYYTFGKADIAANKPVTPQTLFELGSISKTFTGVLGGDAIARGEISLDDAVTRYWPQLTGKQWQGIRMLDLATYTAGGLPLQVPDEVTDNASLLRFYQNWQPQWKPGTTRLYANASIGLFGALAVKPSGMPYEQAMTTRVLKPLKLDHTWINVPKAEEAHYAWGYRDGKAVRVSPGMLDAQAYGVKTNVQDMANWVMANMAPENVADASLKQGIALAQSRYWRIGSMYQGLGWEMLNWPVEANTVVEGSDSKVALAPLPVAEVNPPAPPVKASWVHKTGSTGGFGSYVAFIPEKQIGIVMLANTSYPNPARVEAAYHILEALQ
As to B1, the Km is over 200 µM in data set [1]; 366 µM in [2]; 5 µM in [3]; 240 µM in data set [4]; 290 µM in data set [5]; 15.4 µM in data set [6]. Also, the results for the Km in data set [7], in [8] and in data set [9] were 315 µM, 1450 µM and 4.5 µM, respectively. The kcat in [2] was found to be 2.56 s⁻¹; in [3] it was 0.49 s⁻¹; in data set [4], 0.32 s⁻¹; in [5] it was 0.46 s⁻¹; in [6], 690 s⁻¹; in data set [7], 1180 s⁻¹. Further, the kcat in [8] amounted to 1.6 s⁻¹; in [9], 0.54 s⁻¹.

Usually Km stands for the concentration of substrate that gives half-maximal velocity. The kcat is the maximal rate divided by the concentration of active sites.
